In the experiment the target is NCAM Ig1-2-3 fragment (recombinant rat NCAM residues 1-289, deglycosylated) (rat). Nature of the experiment: dynamic light scattering, 4 mg/ml in PBS pH 7.4, 18 C; self-association.

Consider “NCAM Ig1-2-3 fragment (recombinant rat NCAM residues 1-289, deglycosylated) (from UniProt P13595 20-308)”, for which the molecular weight in solution (DLS) stood at 78 kDa.

Source of the values: patent US20080249004A1.
